The subject of one series is RUES2-CMs. The series can be described thus: Immunocytochemistry (α-actinin staining) and morphological analysis of lentivirally transduced cardiomyocytes. In kind it is cell-based, human. As to conditions: for cell perimeter / cell area: let-7 OE CMs at roughly day 30; for cell perimeter: EV control 108±15 μm, n=50 cells per condition; for cell perimeter / cell area / sarcomere length: P<0.001; for cell area: EV control 380±70 μm^2; for Circularity index (4πArea/(perimeter)^2) / sarcomere length: let-7 OE CMs; for Circularity index (4πArea/(perimeter)^2): EV control 0.41±0.02; for sarcomere length: EV control 1.65±0.02 μm. How it is done: Undifferentiated human embryonic stem cell (hESCs) lines H7 (NIHhESCC-10-0061) and RUES2 (NIHhESC-09-0013) were expanded using mouse embryonic fibroblast-conditioned medium with 5 ng/ml basic fibroblast growth factor. H7-CMs were derived using previously reported protocols^1-3. RUES2-CMs were used for all functional analyses and these were derived using a cardiac progenitor cell differentiation protocol^4 derived from previously reported monolayer directed differentiation methods^1, 5, 6. In brief, this involves the induction of a monolayer of hESCs with activin A and bone morphogenetic protein-4 (BMP4) under serum- and insulin-free conditions. During the early stages of differentiation, the cells were also exposed to the Wnt agonist CHIR 99021 followed by the Wnt antagonist Xav939. From 7 days of in vitro differentiation, the cells were fed every alternate day with serum-free RPMI-B27 plus insulin media. After 20 days of in vitro differentiation, the cells were trypsinized and replated. Only those cell preparations that had at least 70% cardiac troponin T-positive CMs (as observed by flow cytometry) were used for further experiments. For experiments where the H7-CMs were cultured for around a year, the cells were replated after the 3rd and 11th month from day 0. At the 11th month, FACS analysis for cTnT was conducted and the CMs were split into three parts and were cultured as three independent replicates for another 1.5 months after which they were harvested for RNA extraction. IMR90iPSC-CMs cultured for 1 yr were replated at day 20 and split every 2 months for 12 months before harvesting for RNA extraction. To generate engineered cardiac tissue, the inventors used the procedure reported by Tulloch et al.^2 In brief, day 20 CMs are suspended in the collagen gel at 10,000/μl, and rod-shaped constructs of 25 μl (1 mm radius×8 mm length) were generated by casting in a preformed mold and warming to 37° C. The ends of the mold contain Velcro-like micro-fiber loops, and these become impregnated with gel+cell mixture. These tabs allow the constructs to be maintained under static tension, which facilitates alignment and differentiation of the CMs. The constructs were maintained in the serum-free RPMI-B27 plus glutamine media up to 2 weeks. For let-7 overexpression analysis, the CMs were transduced with the virus carrying the pLKO-let-7 or empty vector control pLKO plasmid at day 12 of the directed differentiation protocol. After overnight transduction the virus was removed, cells were rinsed with PBS and new media added. The samples were analyzed at day 30 from the initiation of differentiation.
All morphological analyses were carried out using at least 50 cells. Cells replated in chamber slides were fixed in 4% paraformaldehyde for 15 minutes followed by PBS wash. The fixed cells were blocked for an hour with 1.5% normal goat serum and incubated O/N with mouse alpha actinin (sigma) primary antibody. The primary antibody was rinsed with PBS and incubated with secondary antibody (Alexa fluor 488 [Goat anti mouse]) for an hour followed by nuclear staining using DAPI. For cell area and perimeter measurements, images were acquired and processed using ZEISS™ AXIO fluorescent microscope and AXIOVISION™ software. For sarcomere length, images were acquired and processed using LEICA™ TCS-SPE confocal microscope and LEICA™ software. These confocal images were used to select 1-2 myofibrils per cell with at least ten continuous, well-recognized alpha-actinin bands and divided the length value by the number of sarcomeres. The images were further analyzed using IMAGE J™ software.
For lenti-let-7 OE constructs, Pri-miR-let-7i and pri-miR-let-7g sequence was amplified from H7 genomic DNA using forward primer for let-7i-TCCGCGTGGTCCCGT; reverse primer for let-7i-ATTGTCCTCCGCGGCGC and forward primer for let-7g-AGAGTTCCTCCAGCGCTCC; reverse primer for let-7g-CCCCACTTGGCAGCTGGC, resulting in 153 bp and 154 bp products, respectively. […]

The next series concerns hESCs-CMs. The series can be described thus: Contractile force and beat frequency measurement on arrays of microposts. In kind it is cell-based, human. To be noted: let-7 OE CMs; for beat frequency: EV control 1.57±0.1 hz; for average twitch force: EV control 7.77±0.7 nN/cell, P<0.001. How it is done: Arrays of silicone microposts were fabricated out of polydimethylsiloxane (PDMS) via a previously-described double-casting process using soft lithography from a SU8 master^19. Each micropost within the arrays used for these studies was 6.45 μm in height, 2.3 μm in diameter, and the center to center spacing between adjacent posts was 6 μm. Prior to cell seeding, the tips of these microposts were stamped with 50 μg/ml of mouse laminin (LIFE TECHNOLOGIES™), and the remaining surfaces of the array were fluorescently stained with BSA 594 and blocked with 0.2% Pluronic F-127 (in PBS)^20. CMs that were 1 week post pLKO-let-7 OE or EV lentiviral transfection, were seeded onto these arrays at a density of around 800,000 cells per substrate.
One week following cell seeding, muscle twitches from individual hESCs-CMs were recorded with high-speed video microscopy within a live cell chamber at 37° C. These images were acquired using a NIKON™ Ti-E upright microscope with a 60× water-immersion objective and a Hammamatsu ORCA™ camera. A custom MATLAB™ code was then used to compare each time frame of this video, to a reference fluorescent image, taken at the base plane of the posts. The twitch force at each post was subsequently calculated by multiplying the deflection of the post by the post's bending stiffness (38 nN/μm). The total twitch force produced by the cell was then determined by adding together the twitch force measured at each post beneath the cell. The average spontaneous beating frequency of the cells was determined by locating the time at which each beat reaches a maximum in the total twitch force (using the same MATLAB™ code), calculating the frequency between each sequential beat: 1/(time at which second beat occurs—time at which first beat occurs), and then averaging these frequencies across all of the measured twitch events.

B1: let-7g: human let-7 family miRNA, SEQ ID NO: 9, overexpressed from pLKO lentiviral pri-miR-let-7g construct (nucleic acid, listed as Homo sapiens)
chain: AGGCUGAGGUAGUAGUUUGUACAGUUUGAGGGUCUAUGAUACCACCCGGUACAGGAGAUAACUGUACAGGCCACUGCCUUGCCA
Turning to B1, in the series with RUES2-CMs, the cell perimeter is 302±3 μm, the cell area was determined as 980±95 μm^2, the “Circularity index (4πArea/(perimeter)^2)” value is on record as 0.12±0.02 and the sarcomere length is given as 1.69±0.01 μm. In the series on hESCs-CMs, this molecule returned a beat frequency of 0.92±0.094 hz and an average twitch force of 9.28±0.7 nN/cell.

B2: let-7i: human let-7 family miRNA, SEQ ID NO: 10, overexpressed from pLKO lentiviral pri-miR-let-7i construct (nucleic acid, listed as Homo sapiens)
chain: CUGGCUGAGGUAGUAGUUUGUGCUGUUGGUCGGGUUGUGACAUUGCCCGCUGUGGAGAUAACUGCGCAAGCUACUGCCUUGCUA
Turning to B2, in the series on RUES2-CMs, the cell perimeter is 300±7.4 μm, the cell area was found to be 1110±101 μm^2, the “Circularity index (4πArea/(perimeter)^2)” value amounted to 0.15±0.04 and the sarcomere length turned out to be 1.70±0.01 μm. In the series on hESCs-CMs, this molecule registered a beat frequency of 1.05±0.1 hz and an average twitch force of 11.32±0.86 nN/cell.
